The source of these data is paper doi:10.1101/2021.11.08.467742.

The experiment concerns the target Vibrio maritimus FtsA residues 1-396 (Vibrio maritimus). As to the kind of experiment: SPR.

“Vibrio maritimus FtsN cytoplasmic peptide, residues 1-29” displayed a fold weaker than the EcFtsA^1-405-EcFtsN^1-32 interaction (SPR) of 3 fold.
